The test system of data set [1] is phosphatidylcholine (PC) liposomes. Description: Yeast proteome chip probed with PC liposomes. As to conditions: liposome binding signal on yeast proteome chip, Cy3-streptavidin detection. In a few lines: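 Binding detected by fluorescent streptavidin (Cy3 or Cy5, >30 min in the dark at RT) recognizing biotin-DHPE (1% w/w) in PC liposomes, which carried 5% (w/w) of the named phosphoinositide unless PC-only. Liposomes, made by sonication in TBS, were applied to blocked chips for 1 h at RT, then washed in PBS.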

The test system of data set [2] is PI(3,4)P2 liposomes. Description: Yeast proteome chip probed with PI(3,4)P2 liposomes. As to conditions: liposome binding signal on yeast proteome chip, Cy3-streptavidin detection.

B1: CMK1: yeast calcium/calmodulin-dependent serine/threonine protein kinase, GST-HisX6 fusion (protein)
chain: MDDKVSEKESSPKQTEEDSEGKMAHVQPASYVNKKKYVFGKTLGAGTFGVVRQAKNTETGEDVAVKILIKKALKGNKVQLEALYDELDILQRLHHPNIVAFKDWFESKDKFYIITQLAKGGELFDRILKKGKFTEEDAVRILVEILSAVKYMHSQNIVHRDLKPENLLYIDKSDESPLVVADFGIAKRLKSDEELLYKPAGSLGYVAPEVLTQDGHGKPCDIWSIGVITYTLLCGYSAFRAERVQDFLDECTTGEYPVKFHRPYWDSVSNKAKQFILKALNLDPSKRPTAAELLEDPWIICTELKTHNLLPGLKEGLDARQKFRNSVERVRLNMKIQKLRDLYLEQTESDSDFDEGSQANGSVPPLKATDTSQLSKKLSEEEQSKLKSELTSKAFAQLVNTVLAEKEKFLNINRVCSSDSDLPGSDIKSLDEAKEKPEGKDTKTEE
modifications: left off: a dimerising Fc or GST
notes: yeast calcium/calmodulin-dependent serine/threonine protein kinase, GST-HisX6 fusion
As for B1, the PC in data set [1] is reported as 1073.54. Also, the “PI(3, 4)P2” value in data set [2] came out at 1786.71.

B2: MY04: yeast class V myosin heavy chain, GST-HisX6 fusion (protein, UniProt P32492 1-1471, looked up)
Myosin-4: MSFEVGTKCWYPHKEQGWIGGEVTKNDFFEGTFHLELKLEDGETVSIETNSFENDDDHPTLPVLRNPPILESTDDLTTLSYLNEPAVLHAIKKRYMNGQIYTYSGIVLIAANPFDKVDHLYSREMIQNYSSKRKDELEPHLFAIAEEAYRFMVHEKANQTVVVSGESGAGKTVSAKYIMRYFASVQESNNREGEVEMSQIESQILATNPIMEAFGNAKTTRNDNSSRFGKYLQILFDENTTIRGSKIRTYLLEKSRLVYQPETERNYHIFYQILEGLPEPVKQELHLSSPKDYHYTNQGGQPNIAGIDEAREYKITTDALSLVGINHETQLGIFKILAGLLHIGNIEMKMTRNDASLSSEEQNLQIACELLGIDPFNFAKWIVKKQIVTRSEKIVTNLNYNQALIARDSVAKFIYSTLFDWLVDNINKTLYDPELDQQDHVFSFIGILDIYGFEHFEKNSFEQFCINYANEKLQQEFNQHVFKLEQEEYVKEEIEWSFIEFSDNQPCIDLIENKLGILSLLDEESRLPSGSDESWASKLYSAFNKPPSNEVFSKPRFGQTKFIVSHYAVDVEYEVEGFIEKNRDSVSLGHLDVFKATTNPIFKQILDNRELRSDDAPEEQNTEKKIMIPARLSQKKPTLGSMFKKSLGELMAIINSTNVHYIRCIKPNSEKKPWEFDNLMVLSQLRACGVLETIRISCAGFPSRWTFDEFVQRYFLLTDYSLWSGILYNPDLPKEAIVNFCQSILDATISDSAKYQIGNTKIFFKAGMLAFLEKLRTNKMNEICIIIQKKIRARYYRLQYLQTMESIKKCQSQIRSLLVRTRVDHELKTRAAILLQTNIRALWKREYYRAAIGQIIKLQCTCKRKLILDSVNRKFMLMAAVIIQSYIRSYGHKTDYRTLKRSSILVQSAMRMQLARRRYIVLQKEVEERNIRASYGIGLLEEAIEFKNSFILNLEMLNDSYTRLTQLLQGDLSNIPSKQRQEYETIVNGYNDKISKLKTLQVEIMNTLNKKNALKERKKKQSSLIQSHMQSLAAIKGNKPSRLSDEVKSMKQELAFIENVIAQDFTTTYSANKNDKVKGLGIAGQQVKPKLVNVIRRESGNPDLLELLMDLNCYTLEVTEGYLKKVNVTEVNGDNVLGPIHVITTVVSSLVRNGLLIQSSKFISKVLLTVESIVMSLPKDETMLGGIFWLSNLSRLPAFAANQKTLYEANGGDEKDKLTLIYLNDLENETLKVFDKIYSTWLVKFMKHASAHIEIFDMVLNEKLFKNSGDEKFAKLFTFLNEFDAVLCKFQVVDSMHTKIFNDTLKYLNVMLFNDLITKCPALNWKYGYEVDRNIERLVSWFEPRIEDVRPNLIQIIQAVKILQLKISNLNEFKLLFDFWYALNPAQIQAILLKYKPANKGEAGVPNEILNYLANVIKRENLSLPGKMEIMLSAQFDSAKNHLRYDTSAITQNSNTEGLATVSKIIKLDRK
modifications: GST-HisX6 tag
notes: yeast class V myosin heavy chain, GST-HisX6 fusion
B2 gave a PC in data set [1] of 103.89. Further, the “PI(3, 4)P2” value in data set [2] was determined as 171.73.
